According to patent US11376333B2, “mTG substrates for covalent conjugation of compounds” (COVALAB, priority 2013, dated 2022):

Legend:
[1] = biological target: T1, microbial transglutaminase (mTG) (Streptomyces mobaraensis, UniProt P81453); assay: mTG incorporation of biot-cad into coated BSA-peptide conjugate, with free-peptide competition; assay type: biochemical; settings: 150 μM free peptide, mTG 100 ng/ml
T1 construct: purchased Covalab, France opr 0054
T1 sequence (P81453 77-407): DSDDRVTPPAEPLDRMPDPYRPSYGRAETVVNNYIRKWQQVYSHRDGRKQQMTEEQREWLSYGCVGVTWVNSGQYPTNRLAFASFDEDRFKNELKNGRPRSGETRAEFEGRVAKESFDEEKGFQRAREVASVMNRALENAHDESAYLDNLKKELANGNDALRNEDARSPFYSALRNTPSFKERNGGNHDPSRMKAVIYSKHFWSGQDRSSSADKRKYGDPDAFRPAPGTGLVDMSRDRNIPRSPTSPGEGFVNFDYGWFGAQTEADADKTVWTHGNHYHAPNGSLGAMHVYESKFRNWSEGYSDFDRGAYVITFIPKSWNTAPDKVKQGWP
Protocol: 2 mg of each peptide was dissolved in 1 ml of deionized water and 150 nmoles were mixed with 0.5 mg BSA solubilized in 50 mM bicarbonate buffer pH9.5. After shaking, glutaraldehyde was added at a final concentration of 0.25% (v/v). The mixtures were kept at room temperature during 16 hrs under gentle shaking. At the end of this incubation time, sodium borohydride was added at a final concentration of 10 mg/ml to stabilize the cross-linking between BSA and the peptides. After 2 hours each mixture of peptide-BSA was dialyzed separately in PBS to remove any free peptides.
High binding 96 wells-microtiter plates (Costar) were used to immobilize BSA-peptide and to human IgG-peptide conjugates prepared as described in M-4 and M-5. For these experiments, conjugates were prepared at 50 μg/ml in 50 mM sodium carbonate buffer pH 9 and 100 μl of each solution was dispensed in the number of wells needed for the experiment. After overnight incubation at 4° C., the plates were washed extensively with Tris Buffer Saline (TBS) and were ready to be used for TG activity.
The same procedure was used as described in B-II-1
In the literature its well known that many proteins are not substrate of transglutaminase even if many glutamine residues are present in their structures (Gorman J J, Folk J E. J Biol Chem. 1984 Jul. 25; 259(14):9007-10). […]

[2] = biological target: T1, microbial transglutaminase (mTG); assay: mTG-mediated incorporation of biotin-X-cadaverine into peptides coupled on Covabtest plate; assay type: biochemical; settings: 15 nmoles peptide coupled to plate, biot-cad 0.1 mg/ml, mTG 10 ng/well
Protocol: The coupling method was previously described by the Applicant (V. Thomas et al, 2004) and also in the corresponding data sheet of CovAbtest-Plate™ which is commercially available from Covalab (Ref #opr0004). Briefly, in separate tubes a solution mixture containing 150 μM of each peptide dissolved in 10 mM phosphate buffer pH5, 5 mM EDAC and 5 mM NHS was incubated for 30 min under gentle shaking. The resulting activated NHS-carboxyl C-terminal moiety of each peptide (15 nmoles) was used to be conjugated in each well of CovAbtest-Plate™ previously deprotonated during 15 min with 150 μl 0.6% sodium bicarbonate per well. The microtiter plate was then incubated during 2 hrs at room temperature and washed extensively with Tris Buffer Saline.
For this experiment we used the same procedures described by V Thomas et all (2004) and also in the Covalab's commercialized kit (opr0033). Briefly the Lyophilized transglutaminase was reconstituted in 40 mM tris buffer pH 8 and 50 μl of each mTG at 200 ng/ml and at 40 ng/ml were added in the wells containing 50 μl of biotin-X-cadaverine. The enzymatic mixture was incubated for 15 min at room temperature under gentle shaking. Then the plates were washed 3 times with TBS-Tween20 followed by the addition of 100 μl of diluted HRP labeled streptavidine ( 1/2000 in TBS Tween20, 0.5% BSA) in each well. After 30 min at room temperature and 3 washings in TBS-Tween20, 100 μL of TMB substrate were added and after 5 min the colour development was stopped using 100 μl of 0.5 M sulfuric acid. Absorbances at 450 nm were measured using a microplate reader (Multiskan, Labsystems, Helsinki, Finland).
To screen the peptide library (Covalab) and identify the putative new substrates of mTG we used Covabtest-peptide (described in B-I-1) in which the peptides were covalently coupled into the plates and the amine substrate Biotin-cadeverine (biot-cad) was free in solution. In this experiment 15 nmoles of each peptide (table 2) were covalently conjugated to microtiter plate and the incorporation of biot-cad (0.1 mg/ml) catalyzed by mTG (10 ng/well) was determined following the experiment described in B-II-1. Among all the peptides tested only few peptides were recognized by mTG as Gln (Q) donor to incorporate biot-cad as shown in the FIG. 1. The enzymatic activity was different between the peptide substrates. […] When Q is replaced by N (peptide HH12N11) no reactivity of the mTG was observed confirming the specificity of the enzyme to Gln donor. Moreover, if the reactivity of the 4 peptides (HH12Q11, DH6Q7, HG14Q11 and WG10Q7) is compared, it can be observed that the reactivity of the Gln depends on its position in the peptide sequence. In the most reactive peptides Q is located at the C-terminal. […]

**Q.** With HDLMWPDVYSQH (Peptide HH12Q11) as the sequence, how does the “effect of added free peptide on mTG reactivity on BSA-HH12Q11” value [1] read?
**A.** decreased

**Q.** And the “reactivity as Gln donor for mTG incorporation of biot-cad” value [2]?
**A.** good substrate for mTG
